From US20230051715A1 (MABWELL THERAPEUTICS, published 2023)
Numbering of substitutions follows the chain as printed. In names and notes the source's numbering stands.

T1: human C1s deletion mutant 1 (M151) (human) (UniProt P09871)
T1 sequence: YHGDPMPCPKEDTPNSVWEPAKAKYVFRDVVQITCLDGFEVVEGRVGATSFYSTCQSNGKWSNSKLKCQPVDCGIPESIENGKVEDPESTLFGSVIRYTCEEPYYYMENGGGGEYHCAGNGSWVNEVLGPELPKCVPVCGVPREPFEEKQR

T2: human C1s deletion mutant 2 (NHC) (human, UniProt P09871 16-437)
T2 construct: C-terminal 6xHis tag; also called HuC1s(NHC); huC1sNHC
T2 sequence: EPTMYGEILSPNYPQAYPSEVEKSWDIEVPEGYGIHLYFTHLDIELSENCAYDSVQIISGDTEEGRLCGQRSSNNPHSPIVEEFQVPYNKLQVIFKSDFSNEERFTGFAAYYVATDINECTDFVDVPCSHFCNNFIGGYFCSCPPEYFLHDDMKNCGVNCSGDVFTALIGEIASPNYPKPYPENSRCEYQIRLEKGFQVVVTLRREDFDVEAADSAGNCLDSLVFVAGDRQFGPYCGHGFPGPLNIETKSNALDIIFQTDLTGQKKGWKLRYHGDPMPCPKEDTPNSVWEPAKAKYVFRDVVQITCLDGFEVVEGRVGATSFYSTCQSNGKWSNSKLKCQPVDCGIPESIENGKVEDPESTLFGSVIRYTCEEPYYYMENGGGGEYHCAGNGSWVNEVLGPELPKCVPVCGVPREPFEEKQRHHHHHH

T3: human C1s mutant M1 (M277I) (human, UniProt P09871 16-688)
T3 construct: The entry is the mutant itself
T3 sequence: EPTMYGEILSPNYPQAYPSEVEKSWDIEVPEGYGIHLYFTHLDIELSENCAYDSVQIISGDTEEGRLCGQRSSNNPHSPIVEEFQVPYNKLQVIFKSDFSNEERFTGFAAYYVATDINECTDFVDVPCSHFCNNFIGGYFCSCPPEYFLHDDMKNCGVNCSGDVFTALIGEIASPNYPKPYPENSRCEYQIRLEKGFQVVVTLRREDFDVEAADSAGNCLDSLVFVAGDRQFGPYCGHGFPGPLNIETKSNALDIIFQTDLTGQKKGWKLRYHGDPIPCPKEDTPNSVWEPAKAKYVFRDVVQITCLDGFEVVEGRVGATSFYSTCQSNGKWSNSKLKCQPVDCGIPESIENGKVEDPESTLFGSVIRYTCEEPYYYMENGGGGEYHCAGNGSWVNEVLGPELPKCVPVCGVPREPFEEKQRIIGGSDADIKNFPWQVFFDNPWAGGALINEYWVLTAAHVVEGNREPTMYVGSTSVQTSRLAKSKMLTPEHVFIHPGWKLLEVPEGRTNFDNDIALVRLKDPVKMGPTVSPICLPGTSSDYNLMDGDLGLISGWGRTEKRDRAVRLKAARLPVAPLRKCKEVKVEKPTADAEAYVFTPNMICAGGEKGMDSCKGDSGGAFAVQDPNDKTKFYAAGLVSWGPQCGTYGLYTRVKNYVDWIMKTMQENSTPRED

T4: human C1s mutant M16 (R368H) (human, UniProt P09871 16-688)
T4 construct: The entry is the mutant itself
T4 sequence: T3 sequence with I277M, R368H

B1: Anti-C1s antibody 2-7 (antibody, human IgG1, kappa, V domains shown)
VH: EVKLEESGGGLVPPGGSMKLSCVASGFTFSNYFMNWVRQSPEKGLEWVAEIRLKFTNYATHYAESVEGRFTISRDDSKSSVYLQMNNLRAEDTGIYYCTRDYGSRNGYFDYWGQGTTLTVSS
VL: DIVMTQAAPSVPVTPGESVSISCRSSKSLLHSNGNTFLYWFLQRPGQSPQLLIYRMSNLASGVPDRFSGSGSGTAFTLRVSRVEAEDVGIYYCMQHLEYPYTFGGGTKLEIKT
notes: the HC/LC entries may hold it too; also called clone 2-7
B2: Anti-C1s antibody 2-8 (antibody, V domains shown)
VH: EVQLQQSGAELVRPGALVKLSCKASGFNIKEYYMHWVKQRPEQGLEWIGWIDPENGDTIYDPKFQGKASITADTSSNTAYLQLSSLTSEDTAVYYCARSRLFFAYWGQGTLVTVSA
VL: DIVMTQSHKFMSTSVGDRVSFTCKASQDVRTAVDWYQQKPGQSPKLLIYSASYRYTGVPDRFTGTGSGTDFTFTISSVQAEDLAVYFCQQQYTTPYTFGGGTKLEIKT
notes: the HC/LC entries may hold it too; also called clone 2-8
B3: Anti-C1s antibody hz2-7(H1L2) (antibody, V domains shown)
VH: EVQLLESGGGLVQPGGSLRLSCAASGFTFSNYFMNWVRQAPGKGLEWVSEIRLKFTNYATHYADSVKGRFTISRDDSKSTLYLQMNSLRAEDTAVYYCTRDYGSRNGYFDYWGQGTLVTVSS
VL: DIVMTQTPLSLPVTPGEPASISCRSSKSLLHSNGNTFLYWFLQKPGQSPQLLIYRMSNLASGVPDRFSGSGSGTDFTLKISRVEAEDVGVYYCMQHLEYPYTFGGGTKLEIKR
notes: Humanized, human IgG1 / kappa; also called hz2-7(1L2)
B4: Anti-C1s antibody hz2-8 (H1L2 G80A) (antibody, V domains shown)
VH: QVQLVQSGAEVKKPGASVKVSCKASGFNIKEYYMHWVRQAPEQGLEWMGWIDPENADTIYAQKFQGRVTITADTSTNTAYMELSSLRSEDTAVYYCARSRLFFAYWGQGTLVTVSS
VL: DIQMTQSPKSLSASVGDRVTITCRASQDVRTALDWYQQKPGQSPKLLIYSASYRYSGVPSRFSGSGSGTDFTLTISSLQPEDFATYYCQQQYTTPYTFGQGTKLEIKR
notes: Humanized variant with G80A in HC CDR2 (already in the entry), human IgG1 / kappa
B5: Anti-C1s antibody hz2-8 (H1L2 G80A/T82A) (antibody, V domains shown)
VH: B4 VH with T58A
VL: B4 VL
notes: Humanized variant with G80A and T82A in HC CDR2 (already in the entry), human IgG1 / kappa

The binders below were run against T1, human C1s deletion mutant 1 (M151) (human) (assay: ELISA, plate coated with 200 ng/well HuC1s(M151), OD450nm).

| EC50 [µg/mL] | Binder |
| --- | --- |
| 0.013 | B1 |
| 0.018 | B2 |
| 0.008 | B3 |

What follows are binders tested against T2, human C1s deletion mutant 2 (NHC) (assay: ELISA, plate coated with 200 ng/well HuC1s(NHC), OD450nm).
Experimental: (§1) ELISA was carried out by first coating 96-well plates with 200 ng/well of full-length or truncated C1s proteins overnight. The next morning, plates were blocked with SuperBlock T20 blocking buffer (Thermo Scientific 37536) for 1 h with gentle shaking. Then, various concentrations of anti-C1s antibodies diluted in SuperBlock T20 blocking buffer were added to the plates and incubated for 1 h with gentle shaking. Mouse IgG (Sigma-Aldrich 15381) and human IgG1 (BioXCell BP0297) were used as negative controls. The plates were washed before incubating with HRP conjugated secondary antibodies diluted in SuperBlock T20 blocking buffer (goat anti-mouse IgG (H+L) cross-adsorbed secondary antibody HRP (Invitrogen G-21040) or goat anti-human IgG antibody, HRP conjugate (Millipore AP309P)) for 1 h with gentle shaking. At last, the plates were washed and color developed with ELISA liquid HRP substrate (Sigma-Aldrich), followed by stopping the reaction with addition of 1M H₂SO₄ in the same volume as the ELISA liquid substrate. Bound antibody was measured by absorbance at OD₄₅₀ₙₘ.

| EC50 [ng/mL] | Binder |
| --- | --- |
| 9 | B1 |
| 12 | B2 |
| 6 | B3 |

Each binder was assayed against T3, human C1s mutant M1 (M277I) (assay: ELISA, plate coated with human C1s mutant M1: M277I, OD450nm).
Experimental: as §1
(§2) Binding of anti-C1s antibodies to mutants M1-M20 of human C1s was measured by ELISA as described in Example 4, and results are shown in FIGS. 6B-6U. All anti-C1s humanized variants including hz2-7(H1L2), hz2-8(H1L2 G80A) and hz2-8(H1L2 G80A/T82A) maintained strong binding properties to the majority (16 out of 20) of C1s mutants including M1 (FIG. 6B), M2 (FIG. 6C), M3 (FIG. 6D). M4 (FIG. 6E), M7 (FIG. 6H), M8 (FIG. 6I), M10 (FIG. 6K), M11 (FIG. 6L), M12 (FIG. 6M), M13 (FIG. 6N), M15 (FIG. 6P), M16 (FIG. 6Q), M17 (FIG. 6R), M18 (FIG. 6S), M19 (FIG. 6T) and M20 (FIG. 6U).

| EC50 [ng/mL] | Binder |
| --- | --- |
| 7 | B4 |
| 5 | B5 |
| 9 | B3 |

What follows are binders tested against T4, human C1s mutant M16 (R368H) (assay: ELISA, plate coated with human C1s mutant M16: R368H, OD450nm).
Experimental: as §1, §2

| EC50 [ng/mL] | Binder |
| --- | --- |
| 6 | B4 |
| 9 | B5 |
| 6 | B3 |
